In publication PMC4050190:
“And” between values parts separate entries of the source, which are not always exact repeats. Identical values can stand only once.

Biological target: 6x His-p10 (pRSF duet, first multiple cloning site) (Sesbania mosaic virus)

Substance: untagged SeMV RdRp (pRSF duet) (domain or fragment)
- in vitro RdRp assay (incorporation of αP32 UTP, filter binding, 2 μg protein, 30 °C, 1 h): activity of the RdRp-p10 complex against RdRp alone: 5 fold and 6 fold
